Measurements from the Human Domainome abundance scans (Beltran et al. 2025).

B1: Pre-mRNA-processing factor 40 homolog B, residues 274 to 332; numbered along this chain, Q6NWY9 (parent)
chain: SNREKAKQAFKELLRDKAVPSNASWEQAMKMVVTDPRYSALPKLSEKKQAFNAYKAQRE

Variants of: B1
Assay: abundance fitness (aPCA) (normalised: wild type 0, dead -1); higher = more abundant; growth selection in yeast, the domain comes from the species named
Settings: Homo sapiens

Abundance fitness of substitutions, site by site:
L44: Q -0.219, R -0.36
K43: T 0.206, G 0.001, A -0.014, I -0.655, Y -0.691, V -0.482, Q -0.091, D 0.11, M -0.115, W -0.362, L -0.196, C 0.037, H -0.335, R -0.064, N -0.105, E 0.035, F -0.593, S 0.122, P -0.359
Y38: L -0.546, V -0.38, R -0.476, W -0.085, P -0.423, M -0.613, A -0.317, Q -0.284, C -0.368, F -0.02, H -0.392, S -0.293, T -0.136, K -0.217, N -0.466, D -0.346, G -0.436, I -0.548, E -0.399
K47: D -0.41, W -0.765, I -0.972, N -0.718, H -0.427, S -0.46, A -0.458, P -0.365, Y -0.567, E -0.477, L -0.605, R -0.142, F -0.304, V -0.644, Q -0.236, C -0.606, M -0.497, T -0.447
M31: D -0.272, T -0.336, Y -0.32, P -0.247, G -0.231, W -0.865, R -0.266, L -0.189, N -0.364, V -0.326, E -0.109, H -0.208, S -0.115, F -0.634, Q -0.246, K -0.293, C -0.422
A40: M 0.177, P -0.675, V -0.075, R -0.304, G -0.206, E -0.42, K -0.27, Y -0.368, D -0.739, S 0.005, C -0.129, T -0.312, Q -0.417, L 0.008, W -0.588
V33: A 0.141, E 0.169, D 0.006, L -0.135, N 0.152, C 0.137, Q 0.053, M 0.171, P -0.384, T -0.042, F -0.228, W 0.012, H 0.164, K 0.169, S 0.198, G 0.055, Y -0.269
S45: C -0.484, F -0.233, V -0.457, E -0.027, H -0.016, P -0.369, D -0.097, R -0.303, T -0.211, W -0.427, L -0.541, Q -0.15, I -0.458, K -0.117, A -0.136, G -0.265
Q49: E 0.294, N -0.481, F -0.636, G -0.343, K -0.066, C -0.239, A 0.112, D 0.021, P -0.574, R -0.116, L -0.386, H -0.407, I -0.307
K30: Y -1.08, R -0.03, H -0.384, V -0.429, I -0.701, L -0.42, W -0.999, M -0.247, Q -0.072, S -0.156, P -0.146, T -0.143, F -0.76, G -0.214
K48: E -0.344, R -0.196, D -0.579, T -0.45, F -0.435, P -0.306, C -0.837, A -0.49, Q -0.161, M -0.01, W -0.532, N -0.545, G -0.664, H -0.335, I -0.047, Y -0.259, L 0.122
